In a protein production outcome set (Wang et al. 2014):

Assay: label from the status in PepcDB records
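Further: failed if final PepcDB status was selected cloned or expressed and not failed if soluble or beyond.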

Sequence | protein production
MSYNNSYDVIILAGGLSKRFGADKCCFEVNSKTMLDRLLEQFDNPIVVSRSPRRIKKGILVIEKGEYEGPVKGVREGLKYVRRDRVFITGCDFPFLIKNLVDYVCSKPYDIVIPFDHRPQPLLACYSTELLNKNIDKINGLVELIELSSSVYFIGTEELLKIDPFLYSLININSIIDLIYRPIRIKTKSNFILRLEHHHHHH | failed
MTAANSERYALRLLGPFELTAPGGRRVEITSKKGIAVVAMLALSRDGARSRGWLQDRLWGSRRKAEAAGSLRRELSNLRKLLNADGAELLLSDRDRVRLRTDLIDIDLFVARSGRANGEFLEGLDISSERGFGEWLREQRDALVPPAQDVVVSAVTAGAGTLPTHIVDISTPPVGFAGRPAIAVLPFANATGDETLDYVAEGIGEELIVGLSRIRWLPVISRNSSFSFTESDDRKLIGQRLGAQYLVEGRLYRAYDSYGVSASLAEAITGYSLWSRRFTLQSPAAHDELVQFVNELVAQLESRIEHAEQIRIRGKRQDKLGVCDLIWRGRWHLNRLTRADSEMAQKLFAEALALDPDSPEALIQATAALAWSIWAGRQPQDQIQRMRKLSQQAMLADPDDGRGFMLAGIAEMWLRHPLEAKNLLRQAITLTPSLALAHAQLGGCFNLAGEPDRAIVQLKTAMRLSSNDPNIFYSLGELALAYTMLGQWPEAIEHATLALARRPAYWYAHVLKINALARIGQLDAARIACDELLAIKPNFSKRFLDWLPFVDRTWVDHFVQGLKMVPGRPSDWPERETHETAA | failed
MTADKISPDMLRFERILAAPAATVWQYLVDPELRARWFMSGPTDLQVGGAFGLTMDHDRLSDEVVPTPDRYKPYVGHRWHERITRYEPPHLLAFTWEDGKAGEVTFALTEIDSGTTRLVLTHTGLRGSEDALNFGGGWHAHLAVLEKRIAGISIPDFWALHAVAEREMEIALVSEA | failed
MTAENSATPDYRRNVGAVADALLAHPGPIVVLSHENPDGDALGSVLGLSRALRTLGKTVLAPMTVPHYLSFLPQPGELTAPLESWPQGALAAVLDVDNNDPVRVAGADLTQFDGPVVNVDHHGTNLRRADAGVVDPSKPAAAMMVADVIDALGAPWSEAVATPLMLGLNTDTGNFAFDSVSAETFECAARLRAHGARIGWLNDQMRQNPQSYYLLLREVLGKLEFLHGGRVVQTRVDEEMLARAGATWEQVENYVSMLRNAEGAQLAVMAKDYGDRVKFSLRSRGPVSAQNIAVALGGGGHVPAAGATVISSYAEARARLDAAIEAELARVDAQATAE | failed
MTAHKQPEANETESLLEQVQALESEVRGVVKTQLQLAGMETRRAGESFVRMVAFAVLAACLAFTAWAVLVTAAVIAIVNSSVMSLTTALVIVAVAHLAAAFYIVRYIKRRSRDLLFAETSSSL | failed
MTAHPPRPELQIDIVSDVVCPWCIVGFRQLDQALAATGVLARLRWHPFELNPQMGPEGQNLREHIMEKYGSTPEQSAEARARLTAIGAELGFTFNFTDDSRIVNTFAAHQLLDWAEGQGRQHPLKQALFAAYFTDGRDVSDLSVLLDAVEAAGLDREAAQTALTSGAHQAPVREKQKFWAQHGISGVPSMVFGGKYLLTGAQGADTYAQVIQRCLAEAA | not failed
MTALHDLPGTRLLALFARRELSPGEYYEHLLAHIQRWEPHLNALYRFDPQRVREQAAAATERWRKGQPKGPLDGLPVTIKELIATAGEPIPLGSAATALQPAPCDAPPAARLREAGAIVLAKTTVPDFGMLSSGLSSFHGVTRNPWNLANNTGGSSSGAAAAATAGYGPLHLGTDIGGSVRLPAGWCGLVGFKPSLGRIPIDPYYTGRCAGPMTRCMDDCLLLMRYLAQPDARDATSLPPEVLDWSAEPLSVRGLRVGLQLDPGCGLQPDAEIRAAIEAAARLFEEHGAQLRIVEPLMDRSLLDGLNDFWRARLWSELLLLDETRRARVLPYVHAWAEGGARVSGVDAVRGFNQTFEMRRRAARLFGEIDLLLTPTNQVEAFPADWASPLNDPQRPFEHIVFTVPWNMGEQPALSINCGFTAAGMPIGLQLVAPRFADTWLLRIGKTYEGWRGPIHGWP | failed
MTAMMTILGPVLMGAAFGFLLQRGKVTNCNVIENQFRLRDFTVLKVMGTAIVVGGIGVLLLVDTGNTKYYVKDANMLAIALGAALFGIGMVVYGYCPGTALGAIATGSIHALVGALGMVAGAILYALSFDWLKAHVLNVWALGKVRLPDVTNIPDIIWFAALAVGAGLFFWWIESVEAEQKRM | failed
MTAPEETAPVSVRKPSKPDLWKDSLGRTATRALQILLILTLTVVAVFGLLQIRLLVIPVLIALILAAAIGPFVNMLRRRGWRGGLATGVAFLGLLIVLGGVITVIVMSVRSQWDELISQAAAGLDELESFLLTGPFPIDREQLNQAREAVVEFAQSSQVRSGAVTGLSVVTEFLAGASLVVVILFFFLKDGAKIWEFFLRPFKGRREAKLRRVGKRTMEVLGGYVRGTAIVALVDTVAIGAALLIMQVPLAIPLAIIVFIGAFIPLVGATVAGILAALVALVANGPIVALIVIIVVIAVNQLEGDLLQPVVMGKSLELHALVILMALTAGTILAGIIGAVLAVPIAAVTWAIIQVWTAEDPDLEPMNPELPPANSQPT | failed
MTAPGSMPLTVIGGFLGAGKTTLLNYLLKVQHSERVLVMVNDFGSINIDAELLDQGRHDRPGVVRLQNGCVCCSIGGDLMQAFLQVMSMPDRPDRIIVEASGVADPTRIAQIGRVSGGLSDEGVITLVDASAVRTLAADKYVGDIVRQQILSADIVLLNKLDLSSDAEIVETRAWLRDLAPRTRVVSCIHGEVDAVSVLGIGAGKVAPDAAGGPVDVPVPDLRRASTRHADTFHSSTLATAHRFDRRRIEYALDALPQTVLRGKGFVELEGEATPALLQLCGSRWTLDPVSTPAPPAGTHLVFIATGGRGVPRFDAPSHFEQALASRDAASADTSNLEHHHHHH | not failed
MTAPKVFVSHASEDKARFVVDFARRLRENGVDAWLDQWEMKPGDSLVDKIFEEGLREARAVVIVLSATSVRKPWVREELNASVVNRISRGTKLIPVVIDDCDVPEALRSTVLEHHHHHH | failed
MTAPKVFVSHASEDKARFVVDFARRLRENGVDAWLDQWEMKPGDSLVDKIFEEGLREARAVVIVLSATSVRKPWVREELNASVVNRISRGTKLIPVVIDDCDVPEALRSTVWQKIDNLDDYGESLQRILSVIFDVTDKPALGAPPARFAGPAPLIAGLSRVDDLVIRVIARRQIDEGAGLVEWDRLKAEPILRDVPQQELLDSLEILKRHDFIRVREVIGALHVVLTDLGFLKFAEAYVDDYQGTVNQIAALLVNENVRQNRELAARVNKPVAFIDFVLNLMESNGYIKVSKYIGGQSHVREVSASLRRALQSA | failed
MTAPRYPRDMIGYGATPPNANWPGNARIAVQIVLNYEEGGENNILHGDAASEAFLSEIVGAAPWPGQRHWNMETIYEYGARAGFWRLHRLMRDLPVTVYGVATALARSPDQVAAMKSAGWEIASHGLKWVEHKDMPEEEERAQIAEAIRLHTEVTGSRPRGWYTGRCSMNTVRLASEAGIDYIADTYDDDLPYWKRIDGRDQLIVPYTLDCNDMRFATPQGFNSGDQFFAYLKDSFDALYAEGGEGAPKMLSIGLHCRLIGRPGRVMALKRFLDYARGHEDVWFATRLQIAEHWVREHPPVARTRPSEMPKADFVAAYGGIFEHSPWIAERAHGLELGPAHDTAGGLHNALCRMFRSASAEERLGVLTAHPDLAGKLAQAKRLTAESTSEQASAGLDALTDEERTTFTRLNTEYVARFGFPFIIAVRDHDKASILAAFQRRIGNDRETEFAEACRQVERIAEFRLRDVLPSLEHHHHHH | not failed
MTASDDAPISTDRFMFGRAQRWLHWSMALLIFAAIGLGIVAAYYPSGQQPRQGLLELHKSIGFTILALLVVRIVLRLISGEPPYRRPLGHLTEMAARAGHLALYGLMLLMPLSGYLFSGAGGYSLPWFGLFQWPRLVPRDHALSEWGQVLHDRGAWVLGAVLALHLAAVCWHQFVKRDEVLSRMTGRASES | failed
MTASDQFNSTHSAVDQYAELVLHNGRMYTLDPAQPWADAVAIRQGKLIAVGSLASLASLIGPNTRQHDLDGAFCMPGLHDMHTHPDLALAPRYADDLDVGIEDPTPEQLAAAIHAYADSHPGDGWIYGQYWVRYTFREAGLTPGREWLDSVMPHRPVALLDRMWGTMMVNSKALELAGIDRHTSDPRNGYLERDELTGEPNGLLIDGAYALIHAAMPPTPVSVLRRAYRDGVHFQTSRGVTATKYVHVCENRLQALKELDDAGELTLRVEAAISWQDDIFPVRRRWELLSGERHFYRSARLSANAVKFHFDGTVEPKSSYLLTPWPEESSWRGKLNLTPEHITDMVVDMDKRGLRVIAHCTGDGASDVFLDAVAEARRRNGNSGIRHQCAHSTLLHPGNLKRFQALDVIAEFSPAAWYPTPFASGARSGYGQERLKRIYDFKGVLAAGGIAVFGTDWPVASIDPWLALETMVTRQNPWNQEPDTFGDPISLEQALQVATLNGAHAMGLEHLTGSLEAGKSADLIVLDRDLFAQGARNYIHHTQVQLTFVEGQLVYDRQGTFSDTPLQAVWEGLPPVIEGKE | failed
MTAVETKKQYLTVFKEDGIAEIHLHINKSNSYDLEFYKEFNAAIDDIRFDPDIKVVIVMSDVPKFFSAGADINFLRSADPRFKTQFCLFCNETLDKIARSPQVYIACLEGHTVGGGLEMALACDLRFMGDEAGKIGLPEVSLGVLAGTGGTQRLARLIGYSRALDMNITGETITPQEALEIGLVNRVFPQAETRERTREYARKLANSATYAVSNIKLAIMNGKEMPLNVAIRYEGELQNLLFRSEDAKEGLSAFLEKRQPNWKGI | not failed
MTAVSLGPSPARRDALARRIRLLVTATIGYNVVEAVVAITAGTIASSTALIGFGLDSVIEVSSAAAVAWQFSARDPAVREAREKRTLRIIAFSFFALALYVTVDSVRALTGTGEAGHSVPGIVLAGLSLAIMPFLSAAQRKAGREIGSASAVADSKQTLLCTYLSAVLLVGLLVNLLLGWTWADPVAALVISAIAVKEGRDAWQGRGCCAAPTWATPQAGADTDNCDCCS | failed
MTCANCATDVIYMAERQNERDDRQKLKNISFAKKILLGLSMYVPSSTFKKIVLKLLGAHIGKNVYFGPGSLVLSNDYSSVYIENNVFVAPGVLINVNNFTVGENSHLGYQCLMVGESLKIGSRCNISNRTFIECSYSPILIEDDVTIGGCAMVSTHDGSYRQVYGLEMKAAPIYIRSKAFIGNNAIILPGIEIGRKVIVGAGAVVTKNAVANSVICGVPADKIRTMEVSNENITGN | failed
MTDDRYTVISADCHAGADLLDYRPYLAKRHHDAFDAWAATYVNPYEDLLADTADRNWNSERRLAELAADGIVAEVVFPNTIPPFFPSASLMAPAPTAAEFEQRWAGLRAHNRWLADFCAAAPGRRAGVFQILLNDVEEAVKEISWAAGAGLRGGLLLPGTPPGSGLPELYSKAYDPIWAVCEELDVPVNHHAGSASPPLGDEPAARAVFMVETTWFSHRALWHLVFGGAFRRHPGLRLVLTEQGSGWIPGVLDMLDYYHGRLVAAGPKSATAEAKFGAGLDRAMGKGPSEVWRDNCFVGASFMRPHEVPLRDRIGLDKIMWGSDYPHDEGTYPYSREGLRIAYAGLPRTEIAAMAGGNAARVYGFDLSLLDPIAAKVGPTVAELARPLEEPPADATSPVFARGGSVRVW | failed
MTDFPTSLTAPKKGCEGCTGSPELGFSFDYAYQPIVNLHDQSIFAHEALVRGPNGEGAMSVLNQVTDQNRYRFDQKCRTTAIAGAAKLGMTERLSINFLPNAVYRPELCIRSTLEAAKQHDFPIERLIFETIESEHVDNNNHLSNILREYREFGFMTAIDDFGAGYSGLTLLADFQPDLIKLDMNLVRDIHRDRARQAIVRGVVTMCKDLGIKLIAEGIEHIEERDFLADCGISLMQGYLFAKPAFKALAQIAPEAWQKP | not failed
MTDIPAPAPAAEFWEARYRDTGRVWSGRPNELLVQEAGGLAPGTALDLGCGEGADAVWLASRGWRVTGVDISATALERAAGHADGAGVGDRVLWERHELGPSFPEGSFDLVSAHYLQSPVALDQQAVLRAAARAVAPGGTLLVVMHAGWPSWQTEPPFDAAFPTLDGVLAELALPEGEWSVETRRTARRPSVAPDGTEGFREDHVWRLKRAVFVE | failed
